Data taken from patent publication US20160158369A1, “PHARMACEUTICAL COMPOSITION FOR RESPIRATORY ADMINISTRATION” (SEIKAGAKU CORPORATION, priority 2013, published 2016).

Experiments:
in vivo = experiment: in vivo
Procedure: As a test substance, the compound is was used, and it was used after being dissolved in phosphate buffered saline such that the pharmaceutical concentration is 3 mg/mL.
For the test, a BN/CrlCrlj rat (Charles River Laboratories International, Inc., 5-week old) was used. It was placed on its back and fixed under general anesthesia, and by using a sonde for intratracheal administration (MicroSprayer (registered trademark) Aerosolizer Model IA-1B, manufactured by Penn-Century), intratracheal administration was performed with volume of 100 μL. As general anesthesia, inhalation of isoflurane (concentration of 3.0% and flow rate of 2.0 L/min) was employed.
Weight of the pulmonary tissue was measured and, after being added with an aqueous solution of ammonium formic acid (pH 6.0):methanol (3:2, v/v) at ratio of 40× (1 g: 40 mL), it was homogenated for about 1 minute under ice cooling by using a homogenizer. […] Meanwhile, the measurement was made with n=3 for each evaluation time point.
Each parameter of pharmacokinetics was calculated from a change in average content in pulmonary tissue. If there was an animal showing the measurement value of less than the lower limit of quantification, the average content in pulmonary tissue was calculated by substituting the value of 0 (zero) for it. The time t (hr) for calculating AUC0-t was the final time point at which the quantification can be made. Meanwhile, for calculation of the parameters of pharmacokinetics, non-compartmental analysis model analysis by WinNonlin Professional (registered trademark) Ver 5.2.1 was used. […] The results are shown in FIG. 2 and the following table.
The compounds vb obtained from Example 5 was evaluated in the same manner as the method described in (Test example B1) in terms of the persistent property of the pharmaceutical in a pulmonary tissue of a normal rat.
As a comparative control group, budesonide alone in the same amount as the compound vb, and a mixture of budesonide and chondroitin sulfate in the same amount as the compound vb were administered. Meanwhile, in the present measurement system, the lower detection limit of budesonide was 1 ng/mL. Meanwhile, the evaluation time points include three points, i.e., Hour 4, 24, and 72.

[1] = Blood kinetics (plasma drug concentration) in normal rat after intratracheal administration; format: in vivo
Procedure: The resultant was extracted with chloroform and methanol, and the extracted solution was measured by LC-MS/MS.

[2] = tested on: rat antigen-induced asthma model; experiment: Rat antigen-induced asthma model, eosinophils in bronchoalveolar lavage fluid; format: in vivo
Procedure: Intraperitoneal administration of 1 mL of aluminum hydroxide gel containing ovalbumin (1 mg/mL) was performed 3 times with one day interval. 14 Days after performing the first sensitization, intraperitoneal administration of 1 mL of aluminum hydroxide gel containing ovalbumin (1 mg/mL) was performed again followed by the second sensitization. 7 Days after the second sensitization, inhalation exposure of physiological saline (10 mg/mL) containing ovalbumin was performed by using a nebulizer five times with one day interval in order to induce asthma.
The 0.6 mg/mL prednisolone suspension was orally administered by using a sonde for oral administration under no anesthesia to have prednisolone amount of 3 mg/kg.
Meanwhile, the test was performed with n=6 to 12.
24 Hours after the fifth exposure, phosphate buffered saline (2 mL) containing 0.1% bovine serum albumin heated to 37° C. was injected to a bronchus of a rat under pentobarbital anesthesia and collected thereafter. This procedure was repeated 5 times to have bronchoalveolar lavage fluid. The bronchoalveolar lavage fluid was centrifuged for 3 minutes at 200×g and room temperature. The supernatant was discarded, and the pellet was re-suspended in phosphate buffered saline (500 μL) containing 0.1% bovine serum albumin.
Subsequently, a smear sample of the suspension was prepared followed by Diff-Quik staining. According to cell fractionation, ratio of eosinophil in white blood cells was calculated. According to integration with the number of white blood cells in bronchoalveolar lavage fluid, the number of […] in bronchoalveolar lavage fluid was calculated. Meanwhile, the number of white blood cells in bronchoalveolar lavage fluid was measured by using a blood cell counting chamber. The results are shown in FIG. 4 and the following table.
Dose responsiveness of the compound va in an OVA sensitized rat model was determined in the same manner as (Test example B2).
There were three doses for determination, i.e., 0.35 mg/kg, 3.5 mg/kg, and 35 mg/kg, such that the budesonide amount for administration is 0.1 mg/kg, 1 mg/kg, or 10 mg/kg.

OVA sensitized rat model = experiment: Dose responsiveness of budesonide alone in OVA sensitized rat model; format: in vivo; conditions: doses 0.01, 0.1, 1, 10 mg/kg to bronchus 1 hour before 4th and 5th OVA exposure
Procedure: Dose responsiveness of budesonide alone in an OVA sensitized rat model was determined.
There were four doses for determination, i.e., 0.01 mg/kg, 0.1 mg/kg, 1 mg/kg, and 10 mg/kg.
As a test system, a male BN rat was used. For OVA sensitization, 1 mL of Alum containing 1 mg/mL OVA was administered intraperitoneally. After the sensitization, physiological saline containing 10 mg/mL OVA was used for inhalation exposure, 5 times every 24 hours, by using a nebulizer. The test substance was administered to a bronchus 1 hour before the 4th and 5th inhalation exposure of OVA.
On Hour 24 after the final exposure, 2 mL of PBS containing 0.1% BSA (heated to 37° C.) was administered under pentobarbital anesthesia to a bronchus followed by recovery. This procedure was repeated 5 times to give bronchoalveolar lavage fluid (BALF).
BALF was centrifuged for 3 minutes at 200×g and room temperature. The supernatant was discarded, and the pellet was re-suspended in PBS (500 μL, heated to 37° C.) containing 0.1% BSA. Subsequently, a smear sample of the BALF was prepared followed by Diff-Quik staining. According to cell fractionation, ratio of eosinophil in white blood cells was calculated. According to integration with the number of white blood cells in BALF, the number of […] in BALF was calculated (number of white blood cells was measured by using blood cell counting chamber).

[3] = Drug dissociation test: polysaccharide derivative in buffer solution, 36°C, 1 week, HPLC; format: physicochemical
Procedure: In the examples relating to drug dissociation test, the drug dissociation ratio was evaluated as described below.
Sodium dihydrogen phosphate dihydrate (780 mg (5.0 mmol)) was dissolved in 500 mL of distilled water to give a liquid A. Separately, disodium hydrogen phosphate dodecahydrate (1.79 g (5.0 mmol)) was dissolved in 500 mL of distilled water to give a liquid B. By mixing the liquid A and liquid B at ratio of 2:3, a phosphate buffer solution of pH 7.5 was prepared.
0.62 g (10 mmol) of boric acid and 0.75 g (10 mmol) of potassium chloride were weighed and dissolved in 500 mL of distilled water to give a liquid C. Separately, by diluting 0.1 N sodium hydroxide solution with distilled water (×10 dilution), a liquid D was prepared.
50 mL of the liquid C and 7 mL of the liquid D were added to a 100 mL mess flask, and according to dilution to 100 mL with distilled water, a borate buffer solution of pH 8.0 was prepared. Furthermore, 50 mL of the liquid C and 40 mL of the liquid D were added to a 100 mL mess flask, and according to mess-up to 100 mL with distilled water, a borate buffer solution of pH 9.0 was prepared.
Each polysaccharide derivative obtained from above was dissolved in a buffer solution at each pH so as to have a concentration of 5 mg/10 mL, and heated for 1 week in an incubator at 36° C. Then, the drug dissociation ratio during the incubation was evaluated every 24 hours by liquid chromatography (HPLC).
The evaluation was performed by measuring the ratio between the drug amount remained in a polysaccharide derivative and the dissociated drug amount according to use of a size exclusion chromatography column (manufactured by TOSOH, TSKgel α-6000, 7.8 mmI.D.×30 cm).
Detailed conditions for the liquid chromatography are as follows.
Analysis time: 40 minutes
Solution for elution: acetonitrile (for HPLC):physiological saline=1:2
Detector: UV detector (240 nm)

[4] = tested on: mouse antigen-induced airway hypersensitivity model; experiment: Mouse antigen-induced airway hypersensitivity model (AHR, Penh, PC100); format: in vivo; conditions: single intratracheal administration 40 μL, 1 week before the evaluation
Procedure: For the evaluation, BALB/cCrSlc (Japan SLC, Inc., 11-week old) was used. […] Intratracheal administration (volume: 40 μL) of the budesonide suspension, mixture of budesonide and chondroitin sulfate, and an aqueous solution of the compound va was performed by using a glass microsyringe (Ito Micro Syringe, manufactured by ITO SEISAKUSHO CO., LTD.) after fixing the mouse on its back under general anesthesia. […] The administration was performed only once, and it was performed 6 days after the second sensitization. Meanwhile, the test was performed with n=6. Airway hyper responsiveness (AHR) evaluation was performed as described below. On Day 13 after the second sensitization, the mouse was forced to inhale metacholine (hereinbelow, MCh) of 0, 5, 10 and 20 mM, and the airway resistance parameter (Penh) at 3 minutes after the inhalation of metacholine with different concentrations was measured by a device for measuring unrestrained respiratory function (manufactured by Buxco Research System). AUC value of the Penh value was measured, and a graph of MCh concentration vs. AUC was established.

[5] = tested on: mouse model having antigen-induced rhinitis; experiment: Mouse model having antigen-induced rhinitis, cough number; format: in vivo; conditions: single intranasal administration 20 μL
Procedure: As a negative control, phosphate buffered saline was used. As a comparative control, 4 mg/mL budesonide suspension was used. […] From Day 1 after the final nasal cavity sensitization—induction, 20 μL of ovalbumin physiological saline (40 mg/mL) was intranasally administered with 24 hour interval to induce a rhinitis reaction. The induction of the rhinitis reaction was performed 8 times in total for 8 days. […] The phosphate buffered saline, aqueous solution of the compound va, and budesonide suspension were administered only once on the day of inducing initial rhinitis reaction, and 1 hour before administering physiological saline containing ovalbumin. Meanwhile, the test was basically performed with n=6. From the first day to Day 7 after inducing initial rhinitis reaction, number of coughs during 10 minutes after the administration of ovalbumin-containing physiological saline was measured.

[6] = BN/CrlCrlj, rat, plasma, inhaled or intranasal, 0.3 mg/animal

Compound: C[C@H]1C[C@H]2[C@@H]3CCC4=CC(=O)C=C[C@]4(C)[C@@]3(F)[C@@H](O)C[C@]2(C)[C@@]1(O)C(=O)CO [Betamethasone, betamethasone]
- Tmax (in vivo; BN/CrlCrlj, rat, in vivo, inhaled or intranasal): 4 h
- time after administration until which exposure of betamethasone was observed in pulmonary tissue (in vivo; normal rat, intratracheal, final evaluation time point […], lower limit for quantification 10 ng/g): 48 h
- Cmax [1, 6]: 1010 ng/mL
- Tmax [1, 6]: 0.5 h
- course of plasma concentration (in words) ([1]; betamethasone in plasma, normal rat, intratracheal, lower limit of quantification 5 ng/mL): after 24 hours, it was lower than the lower limit for quantification
- number of eosinophils in bronchoalveolar lavage fluid, % of control ([2]; single intratracheal administration 100 μL, 7 days before the evaluation time point, average value): 90.0 % of control

Compound: CCCC1OC2CC3C4CCC5=CC(=O)C=CC5(C)C4C(O)CC3(C)C2(C(=O)COC(=O)CCCCCCCCCCCN)O1 (stereo not drawn) [Compound xviiib, Budesonide 12-Aminododecylate]
- solubility in water (Solubility in water): good solubility in water

Compound: CCCC1O[C@@H]2C[C@H]3[C@@H]4CCC5=CC(=O)C=C[C@]5(C)[C@H]4[C@@H](O)C[C@]3(C)[C@]2(C(=O)CO)O1 (stereo partly drawn) [budesonide]
- concentration at 4 h (in vivo; BN/CrlCrlj, rat, in vivo): 471 ng/g
- concentration at 24 h (in vivo; BN/CrlCrlj, rat, in vivo): 0.3 ng/g
- concentration at 72 h (in vivo; BN/CrlCrlj, rat, in vivo): 0.1 ng/g
- administration amount at which eosinophil inhibitory activity was shown (OVA sensitized rat model): ≥ 0.1 mg/kg

Compound: Chondroitin Sulfate Introduced with 21-β-Alanyl-Budesonide (25 kDa) [Compound va]
- Dissociation ratio (%/day) ([3]; pH 7.4, 36°C): 0.8 %/day
- drug dissociation ratio ([3]; pH 7.4, 36°C, day 0): 0.0%
- drug dissociation ratio ([3]; pH 7.4, 36°C, day 1): 0.4%
- drug dissociation ratio ([3]; pH 7.4, 36°C, day 2): 1.0%
- drug dissociation ratio ([3]; pH 7.4, 36°C, day 3): 1.8%
- drug dissociation ratio ([3]; pH 7.4, 36°C, day 4): 3.1%
- drug dissociation ratio ([3]; pH 7.4, 36°C, day 5): 3.8%
- drug dissociation ratio ([3]; pH 7.4, 36°C, day 6): 4.4%
- drug dissociation ratio ([3]; pH 7.4, 36°C, day 7): 5.3%
- Dissociation ratio (%/day) ([3]; pH 8.0, 36°C): 2.5 %/day
- drug dissociation ratio ([3]; pH 8.0, 36°C, day 0): 0.0%
- drug dissociation ratio ([3]; pH 8.0, 36°C, day 1): 2.3%
- drug dissociation ratio ([3]; pH 8.0, 36°C, day 2): 4.2%
- drug dissociation ratio ([3]; pH 8.0, 36°C, day 3): 7.7%
- drug dissociation ratio ([3]; pH 8.0, 36°C, day 4): 10.3%
- drug dissociation ratio ([3]; pH 8.0, 36°C, day 5): 12.8%
- drug dissociation ratio ([3]; pH 8.0, 36°C, day 6): 14.0%
- drug dissociation ratio ([3]; pH 8.0, 36°C, day 7): 17.5%
- eosinophil-inhibiting activity ([2]; 0.35 mg/kg (0.1 mg/kg in budesonide amount), 1 week after the administration): eosinophil-inhibiting activity was shown
- dose responsiveness of eosinophil-inhibiting activity ([2]; 0.35, 3.5 and 35 mg/kg): observed with dose responsiveness
- inhibition of enhanced sensitivity to MCh (airway hyper responsiveness, PC100) [4]: inhibited to the level of the control group
- change in average cough number Day 1 to Day 7 and total cough number during 8 days [5]: exhibited an inhibition
